The results in this text go back to patent US20040127407A1 (GREENVILLE HOSPITAL SYSTEM, published 2004).

T1: prolactin receptor (PRLR) on T-47D human breast cancer cells (human, UniProt P16471 25-622)
T1 construct: whole, on cells; Endogenous receptor on T-47D cells; also called hPRLR; PRL receptor
T1 sequence (looked up): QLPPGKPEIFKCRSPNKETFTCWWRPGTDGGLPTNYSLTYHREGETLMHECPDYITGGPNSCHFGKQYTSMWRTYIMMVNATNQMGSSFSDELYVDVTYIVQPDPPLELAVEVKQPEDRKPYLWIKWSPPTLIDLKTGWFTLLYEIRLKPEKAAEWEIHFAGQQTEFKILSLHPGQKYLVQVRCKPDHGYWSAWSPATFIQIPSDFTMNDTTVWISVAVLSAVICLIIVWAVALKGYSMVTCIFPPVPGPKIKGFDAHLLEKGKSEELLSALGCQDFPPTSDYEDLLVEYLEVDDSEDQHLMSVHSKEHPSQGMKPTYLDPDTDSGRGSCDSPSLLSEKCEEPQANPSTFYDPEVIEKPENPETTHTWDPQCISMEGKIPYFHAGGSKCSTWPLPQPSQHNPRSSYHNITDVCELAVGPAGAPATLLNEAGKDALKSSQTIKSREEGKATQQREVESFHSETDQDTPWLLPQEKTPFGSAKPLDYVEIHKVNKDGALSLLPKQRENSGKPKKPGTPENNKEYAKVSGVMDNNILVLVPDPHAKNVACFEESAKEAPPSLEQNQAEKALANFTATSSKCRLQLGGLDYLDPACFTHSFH

B1: human prolactin (hPRL) (ligand, UniProt P01236 29-227, looked up)
chain: LPICPGGAARCQVTLRDLFDRAVVLSHYIHNLSSEMFSEFDKRYTHGRGFITKAINSCHTSSLATPEDKEQAQQMNQKDFLSLIVSILRSWNEPLYHLVTEVRGMQEAPEAILSKAVEIEEQTKRLLEGMELIVSQVHPETKENEIYPVWSGLPSLQMADEESRLSAYYNLLHCLRRDSHKIDNYLKLLKCRIIHNNNC
B2: G129R-endostatin fusion protein (GEFP) (other)
chain: MLPICPGGAARCQVTLRDLFDRAVVLSHYIHNLSSEMFSEFDKRYTHGRGFITKAINSCHTSSLATPEDKEQAQQMNQKDFLSLIVSILRSWNEPLYHLVTEVRGMQEAPEAILSKAVEIEEQTKRLLERMELIVSQVHPETKENEIYPVWSGLPSLQMADEESRLSAYYNLLHCLRRDSHKIDNYLKLLKCRIIHNNNCGSHSHRDFQPVLHLVALNSPLSGGMRGIRGADFQCFQQARAVGLAGTFRAFLSSRLQDLYSIVRRADRAAVPIVNLKDELLFPSWEALFSGSEGPLKPGARIFSFDGKDVLRHPTWPQKSVWHGSDPNGRRLTESYCETWRTEAPSATGQASSLLGGRLLGQSAASCHHAYIVLCIENSFMTASK
notes: The C-terminus of G129R is fused to the N-terminus of endostatin; E. coli product with an extra Met at the N-terminus; also called hPRL-G129R-Endo fusion protein
B3: hPRL-G129R (ligand)
chain: MLPICPGGAARCQVTLRDLFDRAVVLSHYIHNLSSEMFSEFDKRYTHGRGFITKAINSCHTSSLATPEDKEQAQQMNQKDFLSLIVSILRSWNEPLYHLVTEVRGMQEAPEAILSKAVEIEEQTKRLLERMELIVSQVHPETKENEIYPVWSGLPSLQMADEESRLSAYYNLLHCLRRDSHKIDNYLKLLKCRIIHNNNC
notes: also called hPRLA; prolactin antagonist

In this assay the target is T1, prolactin receptor (PRLR) on T-47D …. Put plainly: competitive radioreceptor binding assay on T-47D cells, 125I-hPRL tracer. On the procedure:
Radioreceptor binding assays were performed as previously described (Chen et al., 1991; Appendix B). Briefly, T-47D cells will be grown in six-well tissue culture plates until 90% confluent (˜10⁵ cells/well). Monolayers of cells were starved in serum-free RPMI-1640 medium for 2h. The cells were then incubated at room temperature for two hours in serum-free RPMI-1640 containing 8×10⁴ cpm ¹²⁵I hPRL (Specific Activity=30 μCi/μg; NEN Dupont, Boston, Mass.) with or without hPRL, hPRL-G129R, endostatin, or GEFP at various concentrations. Cells were then washed three times in serum-free RPMI-1640 and solubilized in 0.5 ml of 0.1N NaOH/1% SDS, and the bound radioactivity was determined by a Gamma counter (ICN Biomedical, model 4/600plus; Costa Mesa, Calif.).
In the case of B1, the binding result is reported as “binds”.
The same measure for B2: “binds”; for B3: “binds”.
